“And” between values parts separate entries of the source, which are not always exact repeats. Identical values can stand only once.
B1: Cyclin-dependent kinases regulatory subunit, P08463 (parent)
chain: MSKSGVPRLLTASERERLEPFIDQIHYSPRYADDEYEYRHVMLPKAMLKAIPTDYFNPETGTLRILQEEEWRGLGITQSLGWEMYEVHVPEPHILLFKREKDYQMKFSQQRGG

Variants of: B1
Conditions: Schizosaccharomyces pombe (strain 972 / ATCC 24843), pH 7.1, 25 °C, GdnHCl, Fluorescence, Tris-HCl, NaCl, reversible: yes, structure 1SCE, whole UniProt chain shown

Variant | ddG of mutation (higher = less stable) (transition: 2) | denaturant m value (transition: 2) | denaturant midpoint (higher = more stable) (transition: 2) | unfolding free energy (transition: 2) | denaturant m value (transition: 2+2) [kcal/mol/M] | denaturant midpoint (higher = more stable) (transition: 2+2) [M] | unfolding free energy (transition: 2+2) [kcal/mol] | denaturant m value (transition: 3) | denaturant midpoint (higher = more stable) (transition: 3)
MSKSGVPRLLTASERERLEPFIDQIHYSPRYADDEYEYRHVMLPKAMLKAIPTDYFNPETGTLRILQEEEWRGLGITQSLGWEMYEVHVPEVHILLFKREKDYQMKFSQQRGG | 0.18 kcal/mol and 0.08 kcal/mol | 3.85 kcal/mol/M and 3.55 kcal/mol/M | 1.86 M and 2.05 M | 7.16 kcal/mol and 7.28 kcal/mol |  |  |  |  | 
MSKSGVPRLLTASERERLEPFIDQIHYSPRYADDEYEYRHVMLPKAMLKAIPTDYFNPETGTLRILQEEEWRGLGITQSLGWEMYEVHVVEPHILLFKREKDYQMKFSQQRGG | 0.63 kcal/mol and 0.62 kcal/mol | 3.42 kcal/mol/M and 3.55 kcal/mol/M | 1.96 M and 1.9 M | 6.71 kcal/mol and 6.74 kcal/mol |  |  |  |  | 
MSKSGVPRLLTASERERLEPFIDQIHYSPRYADDEYEYRHVMLPKAMLKAIPTDYFNPETGTLRILQEEEWRGLGITQSLGWEMYEVHVVEVHILLFKREKDYQMKFSQQRGG |  | 3.42 kcal/mol/M and 3.31 kcal/mol/M | 2.04 M and 1.67 M | 6.97 kcal/mol and 5.52 kcal/mol | 1.88 | 4.14 | 7.8 | 1.7 kcal/mol/M and 3.39 kcal/mol/M | 0.74 M and 2.08 M
